The values that follow come from US20230272088A1 (SYNTHEKINE, published 2023).

The target in experiment [1] is T1, extracellular domain of mIFNGR1 (mouse, UniProt P15261 26-254, conjugated to Alexa647 (site not stated)).
T1 construct: Origin and tags of the murine antigen are not described; UniProt P15261 residues 26-254; also called mIFNGR1-ECD; murine IFNGR1 ECD
T1 sequence: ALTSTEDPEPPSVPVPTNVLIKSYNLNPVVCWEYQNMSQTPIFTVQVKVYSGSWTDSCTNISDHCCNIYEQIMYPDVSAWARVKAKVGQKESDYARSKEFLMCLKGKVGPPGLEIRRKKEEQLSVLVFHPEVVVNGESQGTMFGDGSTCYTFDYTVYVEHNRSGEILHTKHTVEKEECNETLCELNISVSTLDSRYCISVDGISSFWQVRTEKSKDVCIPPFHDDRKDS
Nature of the experiment: flow cytometry. For orientation: Flow cytometry measures light scatter and fluorescence of single cells or particles in a stream.

Experiment [2] concerns the target T2, extracellular domain of hIFNGR1 (human, UniProt P15260 18-245, conjugated to Alexa647 (site not stated)).
T2 construct: UniProt P15260 residues 18-245; also called hIFNGR1-ECD; human IFNGR1 ECD
T2 sequence: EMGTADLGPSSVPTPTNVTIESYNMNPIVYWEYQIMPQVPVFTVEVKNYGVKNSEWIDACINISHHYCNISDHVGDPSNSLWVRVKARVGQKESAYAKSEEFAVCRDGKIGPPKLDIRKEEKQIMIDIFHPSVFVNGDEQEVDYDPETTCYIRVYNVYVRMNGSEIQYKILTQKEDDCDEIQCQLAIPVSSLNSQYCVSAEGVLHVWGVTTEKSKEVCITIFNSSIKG
In words: flow cytometry, yeast-displayed VHH, 100 nM Alexa647-conjugated antigen. The method, then: Binding of individual VHH to human and murine antigen was tested by flow cytometry. Briefly, 2E5 yeast cells expressing a single sdAb clone were added to each well of a 96 well plate. The first plate was incubated with 100 nM of human antigen conjugated to Alexa647 whereas the second plate was incubated with 100 nM of murine antigen conjugated to Alexa647. Yeast cells were washed 3 times with PBS containing 1% bovine serum albumin. Yeast cells were analyzed using flow cytometry and clones showing a mean fluorescence intensity of greater than 1000 were considered as binding molecules. Specificity of sdAbs was confirmed by incubating yeast cells with a irrelevant protein conjugated to Alexa647. Positive clones were sequenced, and sequences analyzed to identify unique clonotypes.

Experiment [3] has as its target T2, extracellular domain of hIFNGR1. Nature of the experiment: flow cytometry.

B1: DR907 (VHH)
VHH: EVQLVESGGGLVQAGGSLRLSCAASGRTFSNYAMGWFRQAPGNEREFVAAINWNIGSTYYADSVKGRFTISRDNAKNTVYLQMNSLKPEDTAVYYCGAVWPTGRLRVDSEYDYWGQGTQVTVSS
notes: also called anti-IFNGR1 sdAb VHH DR907
For the molecule B1, the binding result in experiment [1] and in experiment [2] was “binds” each time.

B2: DR908 (VHH)
VHH: EVQLVESGGGLVQAGGSLRVTCAASGRTFTSLAMGWFRQAPGKEREFVAAISRSGGSTDYADSVKGRFFISRDNAKSTLYLQMSSLKPEDTAVYYCAARDYSTLQYYNEYEYSDWGQGTQVTVSS
notes: also called anti-IFNGR1 sdAb VHH DR908
As for B2, the binding result in experiment [3] and in experiment [1] was “binds” in each case.
